Legend:
[1] = molecular target: GST-TCP22 (Arabidopsis thaliana, UniProt Q9C7G4 1-375); experiment: competition; 20x/40x unlabelled mTBS against labelled TBS; 35 mM KCl, 15 mM HEPES pH 7.5, 0.4 mM EDTA, 6% glycerol, 50 ng/ul poly(dI-dC), 0.05 pmol probe, room temperature, 10 min; conditions: protein: recombinant; tags: GST (N-terminal, pET42a); chain copies: 2; blunt
[2] = molecular target: GST-TCP20 (Arabidopsis thaliana, UniProt Q9LSD5 1-314); experiment: as above; conditions: protein: recombinant; tags: GST (N-terminal, pET42a); chain copies: 2; blunt
GST-TCP20, sequence (Q9LSD5 whole entry): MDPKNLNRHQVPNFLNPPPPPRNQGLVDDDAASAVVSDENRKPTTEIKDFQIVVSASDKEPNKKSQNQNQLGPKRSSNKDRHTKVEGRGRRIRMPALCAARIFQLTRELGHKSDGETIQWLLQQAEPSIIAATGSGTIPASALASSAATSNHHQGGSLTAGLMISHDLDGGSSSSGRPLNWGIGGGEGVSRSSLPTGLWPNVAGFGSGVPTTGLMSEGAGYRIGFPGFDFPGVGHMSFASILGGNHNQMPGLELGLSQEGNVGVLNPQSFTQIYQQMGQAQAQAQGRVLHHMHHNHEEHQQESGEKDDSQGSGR

GST-TCP22, sequence (Q9C7G4 whole entry): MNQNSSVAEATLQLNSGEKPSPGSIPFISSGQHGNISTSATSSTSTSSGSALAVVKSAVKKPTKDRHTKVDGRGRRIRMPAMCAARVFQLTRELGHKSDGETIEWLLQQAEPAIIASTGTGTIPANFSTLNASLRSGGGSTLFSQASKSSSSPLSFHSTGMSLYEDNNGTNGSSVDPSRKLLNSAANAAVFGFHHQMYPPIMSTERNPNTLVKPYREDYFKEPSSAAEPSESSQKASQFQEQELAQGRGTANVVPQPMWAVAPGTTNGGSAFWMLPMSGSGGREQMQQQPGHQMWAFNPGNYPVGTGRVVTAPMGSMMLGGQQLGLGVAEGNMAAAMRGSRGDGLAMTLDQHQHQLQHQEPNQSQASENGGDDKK

B1: mTBS 50-bp CCA1 promoter competitor (dsDNA)
DNA 1: GAGATTAACGATCTTAAGTATTGAAACATAGATCAAGATATTATAACGAA
DNA 2: TTCGTTATAATATCTTGATCTATGTTTCAATACTTAAGATCGTTAATCTC
binding result [1]: no binding | binding result [2]: no binding
